The target of this experiment is T1, Cdc13 full-length (FL) (S. cerevisiae, UniProt P32797 1-924).
T1 sequence: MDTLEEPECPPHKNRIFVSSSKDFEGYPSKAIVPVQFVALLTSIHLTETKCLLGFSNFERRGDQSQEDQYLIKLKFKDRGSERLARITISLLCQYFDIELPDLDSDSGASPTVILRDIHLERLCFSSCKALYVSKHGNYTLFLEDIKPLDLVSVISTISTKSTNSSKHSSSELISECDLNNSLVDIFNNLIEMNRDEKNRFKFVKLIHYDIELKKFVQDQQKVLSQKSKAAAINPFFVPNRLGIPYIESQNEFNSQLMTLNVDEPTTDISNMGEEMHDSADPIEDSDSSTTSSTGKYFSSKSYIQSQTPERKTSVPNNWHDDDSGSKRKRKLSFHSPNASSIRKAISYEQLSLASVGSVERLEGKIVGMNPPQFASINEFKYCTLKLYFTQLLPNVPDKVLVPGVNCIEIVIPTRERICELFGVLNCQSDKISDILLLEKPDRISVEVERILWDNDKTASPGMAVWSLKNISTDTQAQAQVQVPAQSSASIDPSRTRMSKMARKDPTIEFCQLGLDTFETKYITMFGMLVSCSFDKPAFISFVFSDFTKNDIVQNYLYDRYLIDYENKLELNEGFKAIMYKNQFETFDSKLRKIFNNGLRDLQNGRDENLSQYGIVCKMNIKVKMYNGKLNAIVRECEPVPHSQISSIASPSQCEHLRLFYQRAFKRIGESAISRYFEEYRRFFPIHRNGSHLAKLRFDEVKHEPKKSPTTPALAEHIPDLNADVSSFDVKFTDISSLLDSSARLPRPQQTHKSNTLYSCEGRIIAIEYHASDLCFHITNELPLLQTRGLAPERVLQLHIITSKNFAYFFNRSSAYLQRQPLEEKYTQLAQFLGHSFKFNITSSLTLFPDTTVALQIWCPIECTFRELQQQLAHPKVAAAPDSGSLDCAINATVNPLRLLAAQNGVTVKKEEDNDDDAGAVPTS
The experiment in a line: fluorescence polarisation. (In general: Fluorescence polarisation rises when a labelled molecule tumbles more slowly, as on binding a larger partner.)

B1: Hsp82 (yeast Hsp90 molecular chaperone) (natural protein)
chain: not shown
By Kd is commonly meant the free concentration of one partner at which half of the binding sites on the other are occupied at equilibrium, for simple one-to-one binding. As for B1, the Kd was ~325 nM.

The values above are taken from publication PMC2744139 (Nature structural & molecular biology, 2009).
